Test system: GST-N571 (CIZ1 N-terminal fragment with PLD1 and PLD2) (Mus musculus)
Assay: EMSA

Row | Substance | K half
1 | Xist repeat A sense | 200 nM
2 | Xist repeat E proximal (sense) | 100 nM

Reference: article doi:10.1101/2020.11.10.376558
